Substitutions are numbered along the chain they refer to. Blank lines part the entries; values can stand above or below the binder they belong to.
Legend:
[1] = target: T1, cynomolgus monkey Nectin-4 expressed on CHO-K1 cells (cynomolgus monkey, UniProt Q96NY8 32-370 (human entry), limits assumed); test: flow cytometry on CHO-K1/cynoNectin4 cells
T1 construct: also called CHO-K1/cynoNectin4; cells expressing the cynomolgus monkey Nectin-4 protein
T1 chain: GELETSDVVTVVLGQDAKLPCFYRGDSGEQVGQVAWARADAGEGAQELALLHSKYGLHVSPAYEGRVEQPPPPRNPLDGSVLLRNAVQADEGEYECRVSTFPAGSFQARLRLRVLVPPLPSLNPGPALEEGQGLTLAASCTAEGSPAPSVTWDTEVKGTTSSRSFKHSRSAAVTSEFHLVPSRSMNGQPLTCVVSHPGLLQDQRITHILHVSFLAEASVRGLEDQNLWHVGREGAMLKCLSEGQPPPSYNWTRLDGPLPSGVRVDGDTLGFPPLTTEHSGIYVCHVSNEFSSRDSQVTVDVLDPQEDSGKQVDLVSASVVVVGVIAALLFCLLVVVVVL

[2] = target: T2, human Nectin-4 expressed on HT-1376 tumor cells (human, UniProt Q96NY8 32-510); test: flow cytometry on HT-1376 cells
T2 construct: whole, on cells; also called HT-1376 cells expressing human Nectin-4
T2 sequence (looked up): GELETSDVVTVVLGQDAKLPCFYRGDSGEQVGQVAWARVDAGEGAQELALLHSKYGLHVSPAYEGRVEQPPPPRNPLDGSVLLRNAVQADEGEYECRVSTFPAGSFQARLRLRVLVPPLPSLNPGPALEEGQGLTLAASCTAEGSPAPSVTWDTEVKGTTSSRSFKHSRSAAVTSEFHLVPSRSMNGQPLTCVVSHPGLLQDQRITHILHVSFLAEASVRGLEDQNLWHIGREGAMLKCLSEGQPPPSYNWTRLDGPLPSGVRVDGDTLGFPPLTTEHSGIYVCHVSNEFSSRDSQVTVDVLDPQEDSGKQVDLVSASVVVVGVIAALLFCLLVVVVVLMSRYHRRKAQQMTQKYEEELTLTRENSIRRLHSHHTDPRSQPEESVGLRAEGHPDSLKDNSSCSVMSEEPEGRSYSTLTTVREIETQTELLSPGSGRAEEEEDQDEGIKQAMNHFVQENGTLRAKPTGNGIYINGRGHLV

[3] = target: human Nectin-3 protein (Sino Biological, Cat. No. 10852-H08H) (human, UniProt Q9NQS3 58-404); test: ELISA, Nectin family protein immobilised on plate
[4] = target: T3, human Nectin-2 protein (Sino Biological, Cat. No. 10005-H08H) (human, UniProt Q92692 32-360); test: ELISA, Nectin family protein immobilised on plate
T3 sequence (looked up): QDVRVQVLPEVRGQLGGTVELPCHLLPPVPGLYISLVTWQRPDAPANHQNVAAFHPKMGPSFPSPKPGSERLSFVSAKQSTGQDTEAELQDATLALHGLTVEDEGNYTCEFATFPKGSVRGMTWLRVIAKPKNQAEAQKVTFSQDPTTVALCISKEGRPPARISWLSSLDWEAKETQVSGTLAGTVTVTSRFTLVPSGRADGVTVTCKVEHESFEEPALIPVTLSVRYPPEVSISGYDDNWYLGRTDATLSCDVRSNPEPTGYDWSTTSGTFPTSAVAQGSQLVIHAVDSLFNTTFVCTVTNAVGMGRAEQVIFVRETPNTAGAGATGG

Chain of human Nectin-3 protein (Sino Biological, Cat. No. 10852-H08H) (Q9NQS3 58-404 limits assumed): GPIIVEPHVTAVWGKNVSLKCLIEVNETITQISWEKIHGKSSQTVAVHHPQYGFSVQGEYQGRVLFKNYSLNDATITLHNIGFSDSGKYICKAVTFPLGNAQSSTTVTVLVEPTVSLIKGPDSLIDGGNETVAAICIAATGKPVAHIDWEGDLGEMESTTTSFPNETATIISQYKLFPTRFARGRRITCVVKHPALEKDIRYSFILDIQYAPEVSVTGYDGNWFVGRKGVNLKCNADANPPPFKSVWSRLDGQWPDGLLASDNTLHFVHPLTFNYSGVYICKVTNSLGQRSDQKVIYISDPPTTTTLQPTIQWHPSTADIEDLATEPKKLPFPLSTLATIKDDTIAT

B1: Antibody 6-B9B6 (murine chimeric anti-Nectin-4 antibody) (antibody, human IgG1, kappa, V domains shown)
VH: EVHLVESGGGLVQPGGSLKLSCAASGFTFSSYGMSWVRQTPDKRLELVATINNIGGSTFPPDSVKGRFTVSRDNAKNTLYLQMSSLKSEDTAMYYCARAYDYVPFAYWGQGTLVTVSA
VL: DIQMTQSSSYLSVSLGGRVTITCKASDHINNWLAWYQQKPGNAPRLLISGATSLETGVPSRFSGSGSGKDYALSIASLQTEDVATYYCQQYWSTPFTFGSGTKLEIKR
notes: Mouse variable regions on human IgG1 / human kappa constant regions
EC50 [1]: 0.719 nM | EC50 [2]: 0.249 nM | binding result [3]: no binding | binding result [4]: no binding

B2: Antibody 23-H4F3 (murine chimeric anti-Nectin-4 antibody) (antibody, human IgG1, kappa, V domains shown)
VH: QVQLQQSGPELVKPGASVRISCKASGYTFTSYYIHWVKQRPGQGLEWIGWIYPGNVNTKYNEKFKGKATLTADKSSSTAYMQLISLTSEDSAVYFCARGVYYFDFWGQGTTLTVSS
VL: SIVMTQTPKFLLVSAGDRVTLTCKASQSVSNDVAWFQQKPGQSPKLLIYYALNRYTGVPDRFTGSGYGTDFTFTISTVQAEDLAVYFCQQDYSSPYTFGGGTKLEIKR
notes: Mouse variable regions on human IgG1 / human kappa constant regions, expressed in ExpiCHO-S cells; also called chimeric antibody 23-H4F3
EC50 [1]: 0.411 nM | EC50 [2]: 0.064 nM | binding result [3]: no binding | binding result [4]: no binding

B3: Antibody 32-A12C7 (murine chimeric anti-Nectin-4 antibody) (antibody, human IgG1, kappa, V domains shown)
VH: QVQLQQPGAELVMPGASVKMSCKASGYTFTDYWMHWVKQRPGQGLEWIGAIDTSDSYTSYNQKFKGKATLTVDESSSTAYMQLSSLTSEDSAVYYCARWGSTMITWGYGMDNWGQGTSVTVSS
VL: DIQMTQTTSSLSASLGDRVTISCRASQDINNYLNWYQQKPDGTVKLLIYYTSRLHSGVPSRFSGSGSGTDYSLTISNLEQEDIATYFCQQGNTLPWTFGGGTKLEIKR
notes: as for B1
EC50 [1]: 1.05 nM | EC50 [2]: 0.3 nM

B4: huH4F3-2 (antibody, human IgG1, kappa, V domains shown)
VH: QVQLVQSGAEVKKPGASVKVSCKASGYTFTSYYIHWVRQAPGQRLEWMGWIYPGNVNTKYSQKFQGRVTLTRDKSASTAYMELSSLRSEDTAVYYCARGVYYFDFWGQGTLVTVSS
VL: AIQMTQSPSSLSASVGDRVTITCRASQSVSNDVGWYQQKPGKAPKLLIYYALNRYTGVPSRFSGSGSGTDFTLTISSLQPEDFATYYCQQDYSSPYTFGQGTKLEIKR
notes: Humanized 23-H4F3, human IgG1/kappa
binding result [1]: binds | binding result [2]: binds

B5: huH4F3-4 (antibody, human IgG1, kappa, V domains shown)
VH: B4 VH
VL: DIVMTQSPDSLAVSLGERATINCKASQSVSNDVAWYQQKPGQPPKLLIYYALNRESGVPDRFSGSGSGTDFTLTISSLQAEDVAVYYCQQDYSSPYTFGQGTKLEIKR
notes: as for B4
binding result [1]: binds | binding result [2]: binds

B6: huH4F3-10 (antibody, human IgG1, kappa, V domains shown)
VH: B4 VH with Y95F
VL: B5 VL with A25S
notes: as for B4
binding result [1]: binds | binding result [2]: binds

B7: huH4F3-9 (antibody, human IgG1, kappa, V domains shown)
VH: B4 VH with Y95F
VL: B5 VL
notes: as for B4
binding result [1]: binds | binding result [2]: binds

Further lines, results first:

binding result [1]: binds | binding result [2]: binds
B8: huH4F3-5 (antibody, human IgG1, kappa, V domains shown)
VH: B4 VH
VL: B5 VL with A25S
notes: as for B4

binding result [1]: binds | binding result [2]: binds
B9: huH4F3-1 (antibody, human IgG1, kappa, V domains shown)
VH: B4 VH
VL: B4 VL with R54L, Y55Q, T56S
notes: as for B4

binding result [1]: binds | binding result [2]: binds
B10: huH4F3-3 (antibody, human IgG1, kappa, V domains shown)
VH: B4 VH
VL: B4 VL with Y36F, L73F
notes: as for B4

binding result [1]: binds | binding result [2]: binds
B11: huH4F3-8 (antibody, human IgG1, kappa, V domains shown)
VH: B4 VH with Y95F
VL: B4 VL with Y36F, L73F
notes: as for B4

binding result [1]: binds | binding result [2]: binds
B12: huH4F3-6 (antibody, human IgG1, kappa, V domains shown)
VH: B4 VH with Y95F
VL: B4 VL with R54L, Y55Q, T56S
notes: as for B4

binding result [1]: binds | binding result [2]: binds
B13: huH4F3-7 (antibody, human IgG1, kappa, V domains shown)
VH: B4 VH with Y95F
VL: B4 VL
notes: as for B4

binding result [1]: binds | binding result [2]: binds
B14: Enfortumab (antibody, human IgG1, kappa, V domains shown)
VH: EVQLVESGGGLVQPGGSLRLSCAASGFTFSSYNMNWVRQAPGKGLEWVSYISSSSSTIYYADSVKGRFTISRDNAKNSLSLQMNSLRDEDTAVYYCARAYYYGMDVWGQGTTVTVSS
VL: DIQMTQSPSSVSASVGDRVTITCRASQGISGWLAWYQQKPGKAPKFLIYAASTLQSGVPSRFSGSGSGTDFTLTISSLQPEDFATYYCQQANSFPPTFGGGTKVEIKR
notes: used as control antibody (naked antibody, no drug); also called control antibody enfortumab

— patent EP4671280A1 (Nanjing Leads Biolabs Co., Ltd., dated 2025)
